From patent US20120039802A1 (published 2012)

Assays:
[1] = target: T1, cMet-Fc fusion protein (extracellular domain of the cMet receptor expressed as an Fc-fusion protein) (human, UniProt P08581 25-932); assay: phage ELISA, cMet-Fc vs TRAIL-Fc
T1 construct: extracellular domain; also called soluble cMet-Fc-fusion protein; soluble cMet receptor; not shown: Fc part
Experimental: Protein phage ELISAs using peptide-displaying phage isolates from the various selection campaigns were performed to determine specificity of the peptides for cMet versus an unrelated Fc-fusion protein (TRAIL-Fe). Briefly, 384-well plates were coated overnight at 4 C with 0.5 μg/mL of cMet-Fc fusion protein or TRAIL-Fc fusion protein (background). The plates were blocked for 2 hours 37 C with 3% (w/v) BSA in PBS containing 0.05% (v/v) Tween-20 (PBST). The plates were washed with PBST and 100 μL of peptide-displaying phage were added to each well. The plates were incubated for 2 hours at room temperature and washed with PBST. cMet-binding peptide-displaying phage were detected using an HRP-conjugated anti-M13 antibody.

[2] = target: T2, human cMet expressed on 3T3 cells (human, UniProt P08581 25-1390); assay: whole cell phage ELISA, 3T3 human cMet vs 3T3
T2 construct: whole, on cells; cells fixed with glutaraldehyde; also called cell surface-expressed human cMet; 3T3 cells that over-express human cMet
T2 sequence (P08581 25-1390): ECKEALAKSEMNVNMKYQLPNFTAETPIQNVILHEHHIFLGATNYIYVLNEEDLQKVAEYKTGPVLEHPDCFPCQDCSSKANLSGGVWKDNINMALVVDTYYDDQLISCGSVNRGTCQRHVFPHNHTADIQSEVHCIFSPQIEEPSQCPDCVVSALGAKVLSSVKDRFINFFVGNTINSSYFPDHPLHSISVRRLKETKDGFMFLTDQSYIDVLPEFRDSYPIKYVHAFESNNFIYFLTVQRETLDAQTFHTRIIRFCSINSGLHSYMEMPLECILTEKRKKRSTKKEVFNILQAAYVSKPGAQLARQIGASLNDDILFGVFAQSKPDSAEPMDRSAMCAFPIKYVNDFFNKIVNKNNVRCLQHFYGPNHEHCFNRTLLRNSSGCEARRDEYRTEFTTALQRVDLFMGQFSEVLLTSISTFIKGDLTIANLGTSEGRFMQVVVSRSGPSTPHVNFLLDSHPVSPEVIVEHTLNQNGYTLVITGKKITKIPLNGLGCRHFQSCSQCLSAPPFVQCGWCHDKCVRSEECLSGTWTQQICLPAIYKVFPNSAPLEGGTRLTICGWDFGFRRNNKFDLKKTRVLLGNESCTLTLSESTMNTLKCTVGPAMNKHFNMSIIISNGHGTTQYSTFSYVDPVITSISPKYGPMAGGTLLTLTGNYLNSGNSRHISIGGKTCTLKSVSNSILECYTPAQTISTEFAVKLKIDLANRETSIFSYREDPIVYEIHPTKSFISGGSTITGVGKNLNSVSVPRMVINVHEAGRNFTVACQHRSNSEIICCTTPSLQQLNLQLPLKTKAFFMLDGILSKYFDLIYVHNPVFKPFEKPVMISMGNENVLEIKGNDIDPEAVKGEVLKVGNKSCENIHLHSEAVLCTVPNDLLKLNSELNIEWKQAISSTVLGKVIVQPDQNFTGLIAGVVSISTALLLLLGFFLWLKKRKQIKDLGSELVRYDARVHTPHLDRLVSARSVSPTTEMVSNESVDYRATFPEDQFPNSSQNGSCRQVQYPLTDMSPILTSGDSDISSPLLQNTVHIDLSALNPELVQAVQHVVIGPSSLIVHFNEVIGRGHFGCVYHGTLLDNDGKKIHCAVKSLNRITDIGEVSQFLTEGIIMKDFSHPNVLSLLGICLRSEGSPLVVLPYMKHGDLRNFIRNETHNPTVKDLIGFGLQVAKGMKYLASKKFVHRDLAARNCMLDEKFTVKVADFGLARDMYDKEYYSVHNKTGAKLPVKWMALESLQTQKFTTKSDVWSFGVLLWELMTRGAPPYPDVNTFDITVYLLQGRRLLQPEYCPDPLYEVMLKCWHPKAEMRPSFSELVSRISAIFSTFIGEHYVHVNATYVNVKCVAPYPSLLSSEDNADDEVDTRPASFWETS
Experimental: Whole cell ELISAs were performed using 3T3 cells that over-express human cMet. […] Briefly, 96-well plates were seeded with 10⁵ cells per well. The plates were centrifuged for 5 minutes at 1600 rpm to pellet the cells. The resulting cell layer was fixed with 0.1% (v/v) glutaraldehyde for 12 minutes at 37 C. […] Peptide-displaying phage also were blocked in the above solution for 1 hour at 37 C. 100 μL of blocked phage was then added to each well and the plates were incubated for 1 hour at room temperature. The plates were washed with PBST. cMet-binding peptide-displaying phage were detected using an HRP-conjugated anti-M13 antibody.

[3] = target: T1, cMet-Fc fusion protein (extracellular …); assay: phage ELISA on cMet-Fc, competitor HGF 100 ng/mL
Experimental: (§1) These assays were conducted using the peptide-displaying phage discovered from the initial selection and screening campaigns using the first generation peptide libraries. Briefly, 96-well plates were coated overnight at 4 C with 0.5 μg/mL of cMet-Fc fusion protein or TRAIL-Fc fusion protein (background). The plates were blocked for 2 hours at 37 C with 3% BSA in PBST. […] This was followed by an addition of 30 μL of peptide-displaying phage overnight culture to each well. The plates were incubated for 2 hours at room temperature, washed with PBST and cMet-binding peptide-displaying phage was detected using an HRP-conjugated anti-M13 antibody.

[4] = target: T1, cMet-Fc fusion protein (extracellular …); assay: phage ELISA on cMet-Fc, competitor HGF 500 ng/mL
Experimental: as §1

T1 sequence (P08581 25-932): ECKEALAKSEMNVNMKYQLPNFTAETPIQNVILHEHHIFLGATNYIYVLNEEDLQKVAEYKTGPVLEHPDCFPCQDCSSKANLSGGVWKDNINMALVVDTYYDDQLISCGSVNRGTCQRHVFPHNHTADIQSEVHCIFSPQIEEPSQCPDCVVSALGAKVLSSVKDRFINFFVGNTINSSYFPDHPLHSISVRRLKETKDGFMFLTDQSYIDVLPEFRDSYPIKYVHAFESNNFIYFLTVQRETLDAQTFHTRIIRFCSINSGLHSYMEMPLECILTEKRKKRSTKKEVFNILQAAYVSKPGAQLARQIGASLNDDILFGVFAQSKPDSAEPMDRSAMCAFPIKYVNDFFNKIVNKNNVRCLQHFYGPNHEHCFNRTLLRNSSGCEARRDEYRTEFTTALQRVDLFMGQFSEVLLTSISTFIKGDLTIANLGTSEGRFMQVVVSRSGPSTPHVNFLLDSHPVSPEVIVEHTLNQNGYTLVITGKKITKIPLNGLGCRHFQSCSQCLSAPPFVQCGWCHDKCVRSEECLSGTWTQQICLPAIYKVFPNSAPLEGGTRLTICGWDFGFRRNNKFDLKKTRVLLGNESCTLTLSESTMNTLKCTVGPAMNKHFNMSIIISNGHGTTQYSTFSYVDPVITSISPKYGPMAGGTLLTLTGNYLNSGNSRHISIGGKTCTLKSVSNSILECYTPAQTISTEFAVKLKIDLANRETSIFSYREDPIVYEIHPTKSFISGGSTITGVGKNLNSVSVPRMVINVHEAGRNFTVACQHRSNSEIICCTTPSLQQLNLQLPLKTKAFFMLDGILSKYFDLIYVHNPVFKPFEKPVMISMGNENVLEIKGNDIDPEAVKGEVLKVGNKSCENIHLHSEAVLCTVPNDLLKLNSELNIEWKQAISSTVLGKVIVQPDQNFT

Q: With AGHFECPKHQYMCDMPGT [465-D04 peptide-displaying phage (SEQ ID NO: 042)] as the binder, how does the “Protein ELISA (fold over background)” value [1] read?
A: 3.1 fold

Q: What about the “WC ELISA (fold over background)” value [2] of the same binder?
A: 1.23 fold

Q: And the “% of binding in the absence of HGF” value [3]?
A: 77%

Q: What about the “% of binding in the absence of HGF” value [4] of the same binder?
A: 31%

Q: How did the “Protein ELISA (fold over background)” value [1] turn out when AGPYSCHSESHDCKLMGT [465-C01 peptide-displaying phage (SEQ ID NO: 032)] was run?
A: 3.2 fold

Q: And the “WC ELISA (fold over background)” value [2]?
A: 1.27 fold

Q: And the “% of binding in the absence of HGF” value [3]?
A: 267%

Q: And the “% of binding in the absence of HGF” value [4]?
A: 23%

Q: AGQMWCAEKNSKCYQWGT [465-D12 peptide-displaying phage (SEQ ID NO: 030)] was tested. Which “Protein ELISA (fold over background)” value [1] did it give?
A: 3.2 fold

Q: What about the “WC ELISA (fold over background)” value [2] of the same binder?
A: 1.27 fold

Q: What about the “% of binding in the absence of HGF” value [3] of the same binder?
A: 34%

Q: What about the “% of binding in the absence of HGF” value [4] of the same binder?
A: 0%

Q: Which “Protein ELISA (fold over background)” value [1] does the source give for GSSHLCNPEFCHFTAP [465-D09 peptide-displaying phage (SEQ ID NO: 003)] here?
A: 3.2 fold

Q: What about the “WC ELISA (fold over background)” value [2] of the same binder?
A: 1.3 fold

Q: What about the “% of binding in the absence of HGF” value [3] of the same binder?
A: 90%

Q: What about the “% of binding in the absence of HGF” value [4] of the same binder?
A: 70%

Q: What does the source list for AGQYLCTQAALGCPEWGT [465-E11 peptide-displaying phage (SEQ ID NO: 029)]?
A: Protein ELISA (fold over background) [1]: 4.3 fold; WC ELISA (fold over background) [2]: 1.23 fold; % of binding in the absence of HGF [3]: 33%; % of binding in the absence of HGF [4]: 124%

Q: Which results are given for AGKYMCEGFEWFCEMWGT [442-E08 peptide-displaying phage (SEQ ID NO: 037)]?
A: Protein ELISA (fold over background) [1]: 4.1 fold; WC ELISA (fold over background) [2]: 1.43 fold; % of binding in the absence of HGF [3]: 81%; % of binding in the absence of HGF [4]: 75%

Q: What does the source list for AGTLSCSEEYKSCQLQGT [465-E09 peptide-displaying phage (SEQ ID NO: 027)]?
A: Protein ELISA (fold over background) [1]: 3.6 fold; WC ELISA (fold over background) [2]: 1.3 fold; % of binding in the absence of HGF [3]: 60%; % of binding in the absence of HGF [4]: 77%

Q: What does the source list for AGHTICQHKALGCPANGT [465-C07 peptide-displaying phage (SEQ ID NO: 041)]?
A: Protein ELISA (fold over background) [1]: 3.1 fold; WC ELISA (fold over background) [2]: 1.27 fold; % of binding in the absence of HGF [3]: 102%; % of binding in the absence of HGF [4]: 138%

Q: Which results are given for AGQAVCEWGPFWCQMQGT [470-A02 peptide-displaying phage (SEQ ID NO: 031)]?
A: Protein ELISA (fold over background) [1]: 3.2 fold; WC ELISA (fold over background) [2]: 1.3 fold; % of binding in the absence of HGF [3]: 78%; % of binding in the absence of HGF [4]: 62%

Q: For AGFWDCGWMMQDCHMHGT [470-C02 peptide-displaying phage (SEQ ID NO: 045)], which “Protein ELISA (fold over background)” value [1] is on record?
A: 3.9 fold

Q: And the “WC ELISA (fold over background)” value [2]?
A: 1.33 fold

Q: What about the “% of binding in the absence of HGF” value [3] of the same binder?
A: 340%

Q: And the “% of binding in the absence of HGF” value [4]?
A: 227%

Q: AGNLPCHWNMSVCDHQGT [465-D01 peptide-displaying phage (SEQ ID NO: 034)] was tested. Which “Protein ELISA (fold over background)” value [1] did it give?
A: 3.3 fold

Q: And the “WC ELISA (fold over background)” value [2]?
A: 1.3 fold

Q: What about the “% of binding in the absence of HGF” value [3] of the same binder?
A: 235%

Q: And the “% of binding in the absence of HGF” value [4]?
A: 134%

Q: Which “Protein ELISA (fold over background)” value [1] does the source give for AGLLGCWDMPMECTGEGT [465-B11 peptide-displaying phage (SEQ ID NO: 036)] here?
A: 3.6 fold

Q: What about the “WC ELISA (fold over background)” value [2] of the same binder?
A: 1.27 fold

Q: What about the “% of binding in the absence of HGF” value [3] of the same binder?
A: 97%

Q: And the “% of binding in the absence of HGF” value [4]?
A: 89%

Q: What does the source list for AGETVCYWLNGWFCVDDGT [274-B07 peptide-displaying phage (SEQ ID NO: 073)]?
A: Protein ELISA (fold over background) [1]: 7.8 fold; WC ELISA (fold over background) [2]: 1.1 fold; % of binding in the absence of HGF [4]: 296%

Q: For AGMDFCEGFWFLCIGNAT [571-C11 peptide-displaying phage (SEQ ID NO: 035)], which “Protein ELISA (fold over background)” value [1] is on record?
A: 3.5 fold

Q: And the “WC ELISA (fold over background)” value [2]?
A: 1.23 fold

Q: What about the “% of binding in the absence of HGF” value [3] of the same binder?
A: 107%

Q: What about the “% of binding in the absence of HGF” value [4] of the same binder?
A: 72%

Q: With AGPLFCFEWPSLCHWGGT [448-H02 peptide-displaying phage (SEQ ID NO: 033)] as the binder, how does the “Protein ELISA (fold over background)” value [1] read?
A: 3.8 fold

Q: What about the “WC ELISA (fold over background)” value [2] of the same binder?
A: 1.43 fold

Q: What about the “% of binding in the absence of HGF” value [3] of the same binder?
A: 113%

Q: And the “% of binding in the absence of HGF” value [4]?
A: 92%

Q: With GSHHTCLDGFAGWRCTEVAP [546-E02 peptide-displaying phage (SEQ ID NO: 366)] as the binder, how does the “% of binding in the absence of HGF” value [3] read?
A: 74%

Q: What does the source list for AGKTVCQKWESVCSGMGT [465-C11 peptide-displaying phage (SEQ ID NO: 038)]?
A: Protein ELISA (fold over background) [1]: 3.1 fold; WC ELISA (fold over background) [2]: 1.3 fold; % of binding in the absence of HGF [3]: 41%; % of binding in the absence of HGF [4]: 4%

Q: What does the source list for AGGNWCSFYEELCEWLGT [445-E04 peptide-displaying phage (SEQ ID NO: 043)]?
A: Protein ELISA (fold over background) [1]: 4.2 fold; WC ELISA (fold over background) [2]: 1.37 fold; % of binding in the absence of HGF [3]: 127%; % of binding in the absence of HGF [4]: 102%

Q: Which “Protein ELISA (fold over background)” value [1] does the source give for AGTIRCNLAMMVCMFEGT [444-B08 peptide-displaying phage (SEQ ID NO: 028)] here?
A: 3.6 fold

Q: What about the “WC ELISA (fold over background)” value [2] of the same binder?
A: 1.43 fold

Q: And the “% of binding in the absence of HGF” value [3]?
A: 111%

Q: What about the “% of binding in the absence of HGF” value [4] of the same binder?
A: 93%

Q: For GSPEMCMMFPFLYPCNHHAP [548-F07 peptide-displaying phage (SEQ ID NO: 369)], which “% of binding in the absence of HGF” value [4] is on record?
A: 37%

Q: How did the “Protein ELISA (fold over background)” value [1] turn out when AGKQWCVVWEETCDQLGT [465-F10 peptide-displaying phage (SEQ ID NO: 039)] was run?
A: 3.7 fold

Q: And the “WC ELISA (fold over background)” value [2]?
A: 1.33 fold

Q: And the “% of binding in the absence of HGF” value [3]?
A: 61%

Q: And the “% of binding in the absence of HGF” value [4]?
A: 42%

Q: Which “Protein ELISA (fold over background)” value [1] does the source give for AGGHWCLELKHLCPPYGT [465-B06 peptide-displaying phage (SEQ ID NO: 044)] here?
A: 4.1 fold

Q: What about the “WC ELISA (fold over background)” value [2] of the same binder?
A: 1.23 fold

Q: And the “% of binding in the absence of HGF” value [3]?
A: 89%

Q: What about the “% of binding in the absence of HGF” value [4] of the same binder?
A: 57%

Q: How did the “Protein ELISA (fold over background)” value [1] turn out when GSMLMCELWWCRFLAP [569-H10 peptide-displaying phage (SEQ ID NO: 004)] was run?
A: 3.4 fold

Q: And the “WC ELISA (fold over background)” value [2]?
A: 1.27 fold

Q: What about the “% of binding in the absence of HGF” value [3] of the same binder?
A: 98%

Q: And the “% of binding in the absence of HGF” value [4]?
A: 83%

Q: Which results are given for AGIWFCNNEEKSCWAYGT [471-A11 peptide-displaying phage (SEQ ID NO: 040)]?
A: Protein ELISA (fold over background) [1]: 3 fold; WC ELISA (fold over background) [2]: 1.37 fold; % of binding in the absence of HGF [3]: 85%; % of binding in the absence of HGF [4]: 80%

Q: How did the “Protein ELISA (fold over background)” value [1] turn out when AGWTWCDLSMMSCIFHGT [573-E07 peptide-displaying phage (SEQ ID NO: 025)] was run?
A: 3.2 fold

Q: What about the “WC ELISA (fold over background)” value [2] of the same binder?
A: 1.37 fold

Q: And the “% of binding in the absence of HGF” value [3]?
A: 77%

Q: And the “% of binding in the absence of HGF” value [4]?
A: 82%

Q: For AGVTNCNLSTMFCFLHGT [465-F08 peptide-displaying phage (SEQ ID NO: 026)], which “Protein ELISA (fold over background)” value [1] is on record?
A: 3.8 fold

Q: And the “WC ELISA (fold over background)” value [2]?
A: 1.3 fold

Q: And the “% of binding in the absence of HGF” value [3]?
A: 68%

Q: And the “% of binding in the absence of HGF” value [4]?
A: 116%

Q: How did the “% of binding in the absence of HGF” value [4] turn out when GSWRFCGGEYSFQVCQDVAP [545-C02 peptide-displaying phage (SEQ ID NO: 365)] was run?
A: 31%
